Results published in patent US20120172293A1 (Takeda / Millennium, published 2012).
Non-standard residues stand in square brackets, D forms with d. No end group written: not given here. Phe(3-Me) = Cc1cccc(C[C@H](N)C(=O)O)c1; Phe(2-Me) = Cc1ccccc1C[C@H](N)C(=O)O; 4Pal = N[C@@H](Cc1ccncc1)C(=O)O; Cha = N[C@@H](CC1CCCCC1)C(=O)O; 4Amb = NCc1ccc(C(=O)O)cc1; Abu = CC[C@H](N)C(=O)O; Aib = CC(C)(N)C(=O)O; Ahx = NCCCCCC(=O)O

T1: human Y2 receptor (human, UniProt P49146 1-381)
T1 construct: whole, on cells; used as membrane fraction of CHO/dhfr- cells stably expressing hY2R; also called hY2R; human NPY2R
T1 sequence (looked up): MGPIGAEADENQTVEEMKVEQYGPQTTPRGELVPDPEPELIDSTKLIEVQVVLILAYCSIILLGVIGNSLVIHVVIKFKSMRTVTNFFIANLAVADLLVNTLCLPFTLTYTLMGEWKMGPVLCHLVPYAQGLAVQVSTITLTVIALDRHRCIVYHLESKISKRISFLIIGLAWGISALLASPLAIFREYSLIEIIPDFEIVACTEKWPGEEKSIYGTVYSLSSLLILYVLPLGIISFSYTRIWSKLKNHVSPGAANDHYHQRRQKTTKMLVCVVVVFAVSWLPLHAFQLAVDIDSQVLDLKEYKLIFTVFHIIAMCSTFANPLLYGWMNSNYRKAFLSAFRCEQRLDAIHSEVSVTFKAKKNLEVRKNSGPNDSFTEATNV

T2: human Y2 receptor (human), P49146
T2 chain: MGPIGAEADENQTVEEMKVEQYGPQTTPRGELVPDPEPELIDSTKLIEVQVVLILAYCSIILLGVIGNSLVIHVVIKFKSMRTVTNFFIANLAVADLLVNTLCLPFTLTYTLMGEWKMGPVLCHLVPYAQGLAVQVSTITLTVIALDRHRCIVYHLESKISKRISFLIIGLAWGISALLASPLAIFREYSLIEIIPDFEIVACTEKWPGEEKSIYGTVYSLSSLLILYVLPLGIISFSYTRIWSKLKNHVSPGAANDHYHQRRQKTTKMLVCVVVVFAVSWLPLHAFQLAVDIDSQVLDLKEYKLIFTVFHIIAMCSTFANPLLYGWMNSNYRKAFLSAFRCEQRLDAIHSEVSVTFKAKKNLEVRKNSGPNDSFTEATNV


Key:
human Y2 receptor [1] = molecular target: T1, human Y2 receptor; assay: RBA: displacement of [125I]-PYY from hY2R/CHO membranes
Method: After incubation at room temperature for 60 minutes, the mixture was filtered through the cell harvester FilterMate (PerkinElmer) using UniFilter-96 GF/C treated with polyethylenimine (PEI) solution (20 mM Tris, 0.3% PEI, pH 7.4), and the filter was washed 3 times with a filtering buffer (50 mM Tris, 5 mM MgCl₂, 150 mM NaCl, 0.03% NaN₃, 0.05% CHAPS, pH 7.4). Thereafter, UniFilter-96 GF/C was dried in a mechanical drier for 1 hour, 15 μl of the liquid scintillator MicroScint O (PerkinElmer) was added to each well, and a measurement was taken using TopCount (PerkinElmer). The data obtained were analyzed using Prism to calculate the IC₅₀ value.

human Y2 receptor [2] = molecular target: T1, human Y2 receptor; assay: cell-based or functional assay
[3] = molecular target: T2, human Y2 receptor (human), P49146; assay: cell-based or functional assay
[4] = molecular target: T2, human Y2 receptor (human), P49146; assay: RBA: [125I]-PYY displacement, hY2R/CHO membranes

IC50 Ratio (human Y2 receptor [1])	GBA EC50 Ratio ([35S]GTPγS binding) (human Y2 receptor [2])	GBA EC50 Ratio (vs PYY(3-36)), [35S]GTPγS [3]	IC50 Ratio (vs PYY(3-36)) [4]	Binder
1.4 IC50 compound/IC50 PYY(3-36)	1.1 EC50 compound/EC50 PYY(3-36)	–	–	Ac-Y[dY]AS[dP]RH[Cha][Cha]NL[Aib]TRQR[Cha]-NH2 (SMILES CC(=O)N[C@@H](Cc1ccc(O)cc1)C(=O)N[C@H](Cc1ccc(O)cc1)C(=O)N[C@@H](C)C(=O)N[C@@H](CO)C(=O)N1CCC[C@@H]1C(=O)N[C@@H](CCCNC(=N)N)C(=O)N[C@@H](Cc1c[nH]cn1)C(=O)N[C@@H](CC1CCCCC1)C(=O)N[C@@H](CC1CCCCC1)C(=O)N[C@@H](CC(N)=O)C(=O)N[C@@H](CC(C)C)C(=O)NC(C)(C)C(=O)N[C@H](C(=O)N[C@@H](CCCNC(=N)N)C(=O)N[C@@H](CCC(N)=O)C(=O)N[C@@H](CCCNC(=N)N)C(=O)N[C@@H](CC1CCCCC1)C(N)=O)[C@@H](C)O, also called compound No. 355) [Ac-[D-Tyr21, D-Pro24, Cha27,28,36, Aib31]-PYY(20-36)]
0.5 IC50 compound/IC50 PYY(3-36)	1.7 EC50 compound/EC50 PYY(3-36)	–	–	Ac-R[dY]AS[dP]R[4Pal][Cha][Aib]NK[Aib]TRQR[Phe(3-Me)]-NH2 (SMILES CC(=O)N[C@@H](CCCNC(=N)N)C(=O)N[C@H](Cc1ccc(O)cc1)C(=O)N[C@@H](C)C(=O)N[C@@H](CO)C(=O)N1CCC[C@@H]1C(=O)N[C@@H](CCCNC(=N)N)C(=O)N[C@@H](Cc1ccncc1)C(=O)N[C@@H](CC1CCCCC1)C(=O)NC(C)(C)C(=O)N[C@@H](CC(N)=O)C(=O)N[C@@H](CCCCN)C(=O)NC(C)(C)C(=O)N[C@H](C(=O)N[C@@H](CCCNC(=N)N)C(=O)N[C@@H](CCC(N)=O)C(=O)N[C@@H](CCCNC(=N)N)C(=O)N[C@@H](Cc1cccc(C)c1)C(N)=O)[C@@H](C)O, also called compound No. 262) [Ac-[Arg20, D-Tyr21, D-Pro24, Pya(4)26, Cha27, Aib28,31, Lys30, Phe(3Me)36]-PYY(20-36)]
9.1 IC50 compound/IC50 PYY(3-36)	4.8 EC50 compound/EC50 PYY(3-36)	–	–	IK[Ahx]RAYINLITRQRY-NH2 (N-terminus assumed; SMILES CC[C@H](C)[C@H](N)C(=O)N[C@@H](CCCCN)C(=O)NCCCCCC(=O)N[C@@H](CCCNC(=N)N)C(=O)N[C@@H](C)C(=O)N[C@@H](Cc1ccc(O)cc1)C(=O)N[C@H](C(=O)N[C@@H](CC(N)=O)C(=O)N[C@@H](CC(C)C)C(=O)N[C@H](C(=O)N[C@H](C(=O)N[C@@H](CCCNC(=N)N)C(=O)N[C@@H](CCC(N)=O)C(=O)N[C@@H](CCCNC(=N)N)C(=O)N[C@@H](Cc1ccc(O)cc1)C(N)=O)[C@@H](C)O)[C@@H](C)CC)[C@@H](C)CC, also called compound No. 353) [[Ile22,28,31, Lys23, Acp24, Ala26]-PYY(22-36)]
0.54 IC50 compound/IC50 PYY(3-36)	0.81 EC50 compound/EC50 PYY(3-36)	–	–	Ac-R[dY]AS[dP]R[4Pal][Cha][Aib]NK[Aib]TRQR[Phe(2-Me)]-NH2 (SMILES CC(=O)N[C@@H](CCCNC(=N)N)C(=O)N[C@H](Cc1ccc(O)cc1)C(=O)N[C@@H](C)C(=O)N[C@@H](CO)C(=O)N1CCC[C@@H]1C(=O)N[C@@H](CCCNC(=N)N)C(=O)N[C@@H](Cc1ccncc1)C(=O)N[C@@H](CC1CCCCC1)C(=O)NC(C)(C)C(=O)N[C@@H](CC(N)=O)C(=O)N[C@@H](CCCCN)C(=O)NC(C)(C)C(=O)N[C@H](C(=O)N[C@@H](CCCNC(=N)N)C(=O)N[C@@H](CCC(N)=O)C(=O)N[C@@H](CCCNC(=N)N)C(=O)N[C@@H](Cc1ccccc1C)C(N)=O)[C@@H](C)O, also called compound No. 261) [Ac-[Arg20, D-Tyr21, D-Pro24, Pya(4)26, Cha27, Aib28,31, Lys30, Phe(2Me)36]-PYY(20-36)]

The remaining lines, values behind:

Binder	IC50 Ratio (human Y2 receptor [1])	GBA EC50 Ratio ([35S]GTPγS binding) (human Y2 receptor [2])	GBA EC50 Ratio (vs PYY(3-36)), [35S]GTPγS [3]	IC50 Ratio (vs PYY(3-36)) [4]
[4Amb]RAYINLI[Abu]RQRY-NH2 (N-terminus assumed; SMILES CC[C@H](NC(=O)[C@@H](NC(=O)[C@H](CC(C)C)NC(=O)[C@H](CC(N)=O)NC(=O)[C@@H](NC(=O)[C@H](Cc1ccc(O)cc1)NC(=O)[C@H](C)NC(=O)[C@H](CCCNC(=N)N)NC(=O)c1ccc(CN)cc1)[C@@H](C)CC)[C@@H](C)CC)C(=O)N[C@@H](CCCNC(=N)N)C(=O)N[C@@H](CCC(N)=O)C(=O)N[C@@H](CCCNC(=N)N)C(=O)N[C@@H](Cc1ccc(O)cc1)C(N)=O, also called compound No. 354) [4-Aminomethylbenzoyl-[Ala26, ILe28,31, Abu32]-PYY(25-36)]	68 IC50 compound/IC50 PYY(3-36)	33 EC50 compound/EC50 PYY(3-36)	–	–
[4Amb]RAYINLVTRQRY (ends and bridges not checked) [4-Aminomethylbenzoyl-[Ala26, Ile28, VAl31]-PYY(25-36)]	–	–	4	7.2
